The values below come from patent US20180355043A1.

The target in test [1] is DR4G99: Human HLA-DRA1*01:02/DRB1*01:01 ECD with collagen peptide CII_1236-1249 (human). Nature of the test: MSD ECL; antigen coated; protocol of Example 3.
Test [2] has the same target. Put plainly: MSD ECL; antigen coated; mAb 0.2 µg/ml.

B1: DR4B4 (antibody, V domains shown)
VH: QVQLKESGPGLVAPSQSLSITCTISGFSLTSYGVHWVRQPPGKGLEWLVVIWSDGSTTYNSALKSRLSISKDNSKSQVFLKMNSLQTDDTAIYYCASHYGSTLAFASWGHGTLVTVSA
VL: DIQMTQSPASLSASVGETVTIICRASVNIYSYLAWYQQKQGKSPQLLVYNAKILAEGVPSRFSGSGSGTQFSLKINSLQPEDFGSYYCQHHYGPFTFGSGTKLEIK
B1: the ECL signal in test [1] came out at 697 ECL; in test [2] it was 15500 ECL.
